Experiment [1] deals with T1, LukGH of S. aureus USA300 TCH1516 (UniProt Q2FFA2 28-351; P21224 30-338).
T1 chain 1: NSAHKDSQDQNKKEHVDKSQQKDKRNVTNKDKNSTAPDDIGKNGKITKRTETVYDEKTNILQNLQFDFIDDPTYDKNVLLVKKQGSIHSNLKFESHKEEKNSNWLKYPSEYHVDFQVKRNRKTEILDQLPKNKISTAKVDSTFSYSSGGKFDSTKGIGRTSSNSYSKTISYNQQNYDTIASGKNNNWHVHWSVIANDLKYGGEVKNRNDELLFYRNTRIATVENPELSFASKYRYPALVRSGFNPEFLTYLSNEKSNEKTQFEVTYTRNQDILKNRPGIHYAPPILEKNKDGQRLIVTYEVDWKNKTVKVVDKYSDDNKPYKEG
T1 chain 2: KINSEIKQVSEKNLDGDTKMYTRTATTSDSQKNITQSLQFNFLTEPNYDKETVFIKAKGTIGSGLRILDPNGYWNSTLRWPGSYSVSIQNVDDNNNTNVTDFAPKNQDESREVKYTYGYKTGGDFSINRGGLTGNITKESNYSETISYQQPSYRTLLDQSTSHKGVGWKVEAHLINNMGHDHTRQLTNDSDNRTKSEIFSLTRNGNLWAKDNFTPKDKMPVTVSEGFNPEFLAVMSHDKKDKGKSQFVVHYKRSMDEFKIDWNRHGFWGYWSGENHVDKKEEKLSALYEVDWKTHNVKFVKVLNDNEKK
Briefly: MSD; Fab.

The target in experiment [2] is T2, LukG_TCH1516.
T2 chain: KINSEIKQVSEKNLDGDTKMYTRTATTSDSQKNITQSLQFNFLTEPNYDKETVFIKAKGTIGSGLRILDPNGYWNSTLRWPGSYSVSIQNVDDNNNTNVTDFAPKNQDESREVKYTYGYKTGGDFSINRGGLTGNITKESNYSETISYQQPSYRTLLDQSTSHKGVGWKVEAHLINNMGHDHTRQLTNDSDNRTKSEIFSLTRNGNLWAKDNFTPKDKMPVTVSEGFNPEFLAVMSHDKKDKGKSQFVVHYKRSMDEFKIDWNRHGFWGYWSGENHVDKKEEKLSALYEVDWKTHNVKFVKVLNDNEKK
Put plainly: MSD; Fab.

For the next experiment, the target named is T3, LukGH_H19.
T3 chain 1: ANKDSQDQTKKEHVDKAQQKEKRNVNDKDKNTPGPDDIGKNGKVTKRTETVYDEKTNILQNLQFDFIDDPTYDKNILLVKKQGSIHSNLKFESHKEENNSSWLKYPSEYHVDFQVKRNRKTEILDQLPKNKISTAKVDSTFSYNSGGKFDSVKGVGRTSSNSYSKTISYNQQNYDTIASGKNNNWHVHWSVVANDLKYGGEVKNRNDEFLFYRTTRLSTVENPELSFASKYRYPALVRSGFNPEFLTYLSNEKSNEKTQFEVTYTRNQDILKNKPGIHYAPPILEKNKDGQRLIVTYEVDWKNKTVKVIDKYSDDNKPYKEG
T3 chain 2: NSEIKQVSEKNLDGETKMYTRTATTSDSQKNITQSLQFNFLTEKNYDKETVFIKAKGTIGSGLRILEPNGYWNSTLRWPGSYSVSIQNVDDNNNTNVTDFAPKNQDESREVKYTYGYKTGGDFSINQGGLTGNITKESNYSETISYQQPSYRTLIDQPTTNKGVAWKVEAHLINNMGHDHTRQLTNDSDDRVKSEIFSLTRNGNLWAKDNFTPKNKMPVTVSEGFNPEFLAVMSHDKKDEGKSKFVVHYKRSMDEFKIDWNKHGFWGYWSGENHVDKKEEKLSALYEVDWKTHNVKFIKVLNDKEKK
Briefly: ForteBio.

Experiment [3] deals with T1, LukGH of S. aureus USA300 TCH1516. Put plainly: ForteBio. On the technique in general: In BLI a coated tip is dipped into the sample, and binding shifts an interference pattern.
The target in the next experiment is T4, LukGH_MRSA252.
T4 chain 1: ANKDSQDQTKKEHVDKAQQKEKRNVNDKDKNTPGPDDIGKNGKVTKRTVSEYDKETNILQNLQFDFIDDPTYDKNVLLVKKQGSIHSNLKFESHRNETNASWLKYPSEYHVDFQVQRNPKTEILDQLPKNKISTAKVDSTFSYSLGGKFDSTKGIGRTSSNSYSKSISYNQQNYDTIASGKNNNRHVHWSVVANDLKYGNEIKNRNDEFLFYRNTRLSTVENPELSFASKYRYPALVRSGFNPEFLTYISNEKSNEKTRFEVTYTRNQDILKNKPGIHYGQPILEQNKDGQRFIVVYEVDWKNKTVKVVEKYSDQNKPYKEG
T4 chain 2: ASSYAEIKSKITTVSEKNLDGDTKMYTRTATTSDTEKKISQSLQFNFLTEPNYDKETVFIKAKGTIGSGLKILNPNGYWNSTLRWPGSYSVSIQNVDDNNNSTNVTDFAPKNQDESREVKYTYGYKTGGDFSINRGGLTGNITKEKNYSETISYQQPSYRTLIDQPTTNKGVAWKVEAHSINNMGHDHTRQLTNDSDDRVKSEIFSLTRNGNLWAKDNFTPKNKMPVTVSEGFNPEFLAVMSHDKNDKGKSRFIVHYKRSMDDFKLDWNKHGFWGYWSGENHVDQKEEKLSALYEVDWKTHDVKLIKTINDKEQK
Briefly: ForteBio.

Another experiment addresses T5, LukGH_MSHR1132.
T5 chain 1: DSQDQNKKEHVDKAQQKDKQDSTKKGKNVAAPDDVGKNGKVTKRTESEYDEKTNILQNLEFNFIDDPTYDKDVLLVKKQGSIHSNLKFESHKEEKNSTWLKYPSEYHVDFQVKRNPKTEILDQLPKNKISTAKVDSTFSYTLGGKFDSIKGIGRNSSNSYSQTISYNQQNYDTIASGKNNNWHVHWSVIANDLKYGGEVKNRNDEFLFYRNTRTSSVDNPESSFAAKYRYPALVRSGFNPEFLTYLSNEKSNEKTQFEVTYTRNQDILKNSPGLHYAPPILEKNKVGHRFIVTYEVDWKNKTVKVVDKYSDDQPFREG
T5 chain 2: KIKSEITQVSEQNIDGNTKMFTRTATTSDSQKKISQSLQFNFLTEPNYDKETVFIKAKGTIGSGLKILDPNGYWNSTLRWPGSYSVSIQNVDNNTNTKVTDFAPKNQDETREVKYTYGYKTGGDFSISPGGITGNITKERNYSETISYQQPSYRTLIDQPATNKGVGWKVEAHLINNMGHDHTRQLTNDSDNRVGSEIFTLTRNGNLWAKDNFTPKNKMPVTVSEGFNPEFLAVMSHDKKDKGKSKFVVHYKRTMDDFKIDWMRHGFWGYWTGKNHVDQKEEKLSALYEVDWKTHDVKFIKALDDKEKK
Put plainly: ForteBio.

Experiment [4] deals with T2, LukG_TCH1516. Put plainly: ForteBio.

Experimental findings from patent US20180179267A1 (published 2018) are described below.

B1: AB-31 (antibody, V domains shown)
VH: EVQLVESGGGLVQPGRSLRLSCAASGFTFYDYNMHWVRQAPGKGLEWVSGISWNSGSIAYADSVKGRFTISRDNAKNSLYLQMNSLRAEDTALYYCAKAQKGTAFDIWGQGTMVTVSS
VL: DIQMTQSPSSLSASVGDRVTITCQASQDITNYLNWYQQKPGKAPKLLIYDASNLETGVPSRFSGSGSGTDFTFTISSLQPEDIATYYCQQYPVYPPTFGGGTKVEIKR
For the molecule B1, the Kd – broadly, the equilibrium constant for the complex coming apart – in experiment [1] is 0.52 pM; with LukG_TCH1516 [2], 120 pM; in the experiment with LukGH_H19 it was 240 pM; in experiment [3] it was below 100 pM; in the experiment with LukGH_MRSA252, 250 pM; with LukGH_MSHR1132, 250 pM. This molecule returned a Kd in the experiment with LukG_TCH1516 [4] of 9700 pM.
